Experiment [1] addresses SARS-COV-2 RBD (SARS-COV-2) (UniProt P0DTC2). The experiment in a line: ELISA, RBD coated.
The target of experiment [2] is SARS-CoV-2 receptor-binding domain (WT RBD; S protein residues 319-539) (SARS-CoV-2) (UniProt P0DTC2). Briefly: BLI (Octet Red), IgG on protein A biosensor, WT RBD in solution, 1:1 fit.

Take C144 (antibody): the EC50 (as a rule, the concentration that produces a half-maximal response) in experiment [1] stood at 1.83 ng/mL. The Kd (in general, the equilibrium constant for the complex coming apart) in experiment [2] was found to be 714 nM.

Values taken from patent publication US20240218057A1.
